Experimental data: patent publication US20110165066A1 (AbbVie / Abbott, published 2011)
Changes are numbered by the printed parent chain. Where two headings read alike, the source gives them in different places.

T1: mouse IL-13 (mouse, UniProt P20109 26-131, limits assumed)
T1 construct: also called mIL-13; murine IL-13
T1 sequence (looked up): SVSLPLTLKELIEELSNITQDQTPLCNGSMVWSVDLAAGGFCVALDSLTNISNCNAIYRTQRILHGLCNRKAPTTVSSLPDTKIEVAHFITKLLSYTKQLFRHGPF

B1: 9C11-Chim (antibody, human IgG1, V domains shown)
VH: QVRLQQPGAELVRPGASVKLSCKASGYTFTSSWIHWVNQRPGQGLEWIGMIHPSDSETRLNQKFKDKATLTVDKSSSTAYMQLSSPTSEDSAVYYCASTATDFDYWGQGTTLTVSS
VL: DVVLTQTPLSLPVNIGDQASISCRSTQTLLNSDGFTYLDWYLQKPGQSPQLLIYLVSNRFSGVPDRFSGSGSGTDFTLKISRVEAEDLGVYYCFQNNYLPLTFGAGTKLELKR
B2: 21D9 (antibody, V domains shown)
VH: QVQLQQSGDDLVKPGASVKLSCKASGYTFTSYWINWIKQRPGQGLEWIGHIAPGSGETYDNEMFKDKAKLTVDTSSNTAYIHLSSLSSEDSAVYFCARGSFTFFYAMDYWGQGTSVTVSS
VL: DVLMTQTPLSLPVSLGDQASISCRSSQNIVHSNGKTYLEWYLQRPGQSPKLLIYKVSNRFSGVPDRFSGSGSGTDFTLKISRVEAEDLGVYYCFQGSHVPYTFGGGTKLEIKR
B3: 22D10 (antibody, V domains shown)
VH: B2 VH with N77S
VL: B2 VL
B4: 5G1-Chim (antibody, V domains shown)
VH: QVQLQQSGAELARPGTSVKLSCKASGYTFTTYGVSWVKQRTGQGLEWIGEIYPGNYNTYYNEKFRGKATLTADKSSSTAYMQLSSLTSEDSAVYFCSRWRTSYFSDYGYFDYWGQGTTLTVSS
VL: DVVMTQTPLSLPVSLGDQASISCRSSQSLVHSHGNTYLHWYLQKPGQSPKLLIYTVSNRFSGVPDRFSGSGSGTDFTLKISRVEAEDLGVYFCSQSTHVPYTFGGGTKLEIKR
notes: also called chimeric 5G1
B5: 5G1.1 (antibody, human IgG1, V domains shown)
VH: EVQLVQSGAEVKKPGASVKVSCKASGYTFTTYGVSWVRQAPGQGLEWIGEIYPGNYNTYYNEKFRGKATMTTDTSTSTAYMELRSLRSDDTAVYYCSRWRTSYFSDYGYFDYWGQGTTVTVSS
VL: B4 VL with T7S, S14T, D17Q, Q18P, L42Q, K44R, K50R, L88V, F92Y, L109V
notes: Humanized
B6: 5G1.2 (antibody, human IgG1, V domains shown)
VH: B5 VH with M70L, T72A, T74K, R84S, Y95F
VL: B4 VL with T7S, S14T, D17Q, Q18P, L42Q, K44R, K50R, L88V, L109V
notes: Humanized

Experiments:
human IL-13 wild type [1] = target: T2, human IL-13 wild type (human, UniProt P35225 35-146); experiment: cell-based or functional assay
T2 sequence (P35225 other isoform, or with tags, fused parts or gaps limits assumed): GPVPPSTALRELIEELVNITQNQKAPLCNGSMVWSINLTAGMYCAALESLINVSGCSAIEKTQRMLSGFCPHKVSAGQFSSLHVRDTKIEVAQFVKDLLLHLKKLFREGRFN

mouse IL-13 = target: T1, mouse IL-13; experiment: indirect ELISA, captured mAb, biotinylated mouse IL-13
Experimental: Murine anti-human IL-13 mAbs were prepared at various concentrations ranging from 0.1 to 100 ng/ml in PBS containing 0.1% BSA; 50 ul of each antibody dilution was added to the coated ELISA plate and incubated for 1 hour at room temperature. Wells were washed 3 times with PBS containing 0.05% Tween-20. […] Wells were washed 3 times with PBS containing 0.05% Tween-20. Streptavidin HRP (Pierce #21126, Rockland, Ill.) was diluted 1:20000 in PBS containing 0.1% BSA; […] was added and the plates incubated for 1 hour at room temperature. Plates were washed 3 times with PBS containing 0.05% Tween-20. Fifty microliters of TMB solution (Sigma # T0440, St. Louis, Mo.) was added to each well and incubated for 10 minutes at room temperature. The reaction was stopped by addition of 1N sulphuric acid. Plates were read spectrophotmetrically at a wavelength of 450 nm.

[2] = target: T3, human IL-13 variant (R130Q) (human, UniProt P35225 35-146); experiment: cell-based or functional assay
T3 sequence (P35225 35-146 limits assumed, stated change not applied): as the sequence (P35225 other isoform, or with tags, fused parts or gaps limits assumed) above, with R110Q counted along it

human IL-13 wild type [3] = target: T2, human IL-13 wild type; experiment: cell-based or functional assay; remark: listed apart in the source
cynomolgus IL-13 = cynomolgus IL-13 (cynomolgus, UniProt Q0PW92 21-132); experiment: cell-based or functional assay
cynomolgus IL-13, sequence (Q0PW92 entry or part of it): as the sequence (P35225 other isoform, or with tags, fused parts or gaps limits assumed) above, with G1S, R10K, M42V, S67N, H83R, L100V, R110Q counted along it

[4] = target: T3, human IL-13 variant (R130Q); experiment: SPR (Biacore), mAb captured, IL-13 as analyte
Experimental: (§1) The BIACORE assay (Biacore, Inc, Piscataway, N.J.) determines the affinity of antibodies with kinetic measurements of on-, off-rate constants. […] All chemicals were obtained from Biacore® AB (Uppsala, Sweden) or otherwise from a different source as described in the text. Approximately 5000 RU of goat anti-mouse IgG, (Fcγ), fragment specific polyclonal antibody (Pierce Biotechnology Inc, Rockford, Ill.) diluted in 10 mM sodium acetate (pH 4.5) was directly immobilized across a CM5 research grade biosensor chip using a standard amine coupling kit according to manufacturer's instructions and procedures at 25 μg/ml. Unreacted moieties on the biosensor surface were blocked with ethanolamine. Modified carboxymethyl dextran surface in flowcell 2 and 4 was used as a reaction surface. Unmodified carboxymethyl dextran without goat anti-mouse IgG in flow cell 1 and 3 was used as the reference surface. For kinetic analysis, rate equations derived from the 1:1 Langmuir binding model were fitted simultaneously to association and dissociation phases of all eight injections (using global fit analysis) with the use of Biaevaluation 4.0.1 software. Purified antibodies were diluted in HEPES-buffered saline for capture across goat anti-mouse IgG specific reaction surfaces. Mouse antibodies to be captured as a ligand (25 μg/ml) were injected over reaction matrices at a flow rate of 5 μl/min. The association and dissociation rate constants, kₒₙ (unit M⁻¹s⁻¹) and koff (unit s⁻¹) were determined under a continuous flow rate of 25 μl/min Rate constants were derived by making kinetic binding measurements at ten different antigen concentrations ranging from 10-200 nM. […] Binding is recorded as a function of time and kinetic rate constants are calculated.

human IL-13 wild type [5] = target: T2, human IL-13 wild type; experiment: SPR (Biacore), mAb captured, IL-13 as analyte
Experimental: as §1

[6] = target: T3, human IL-13 variant (R130Q); experiment: cell-based or functional assay; remark: listed apart in the source
human IL-13 wild type [7] = target: T2, human IL-13 wild type; experiment: cell-based or functional assay; remark: listed apart in the source
human IL-13 wild type [8] = target: T2, human IL-13 wild type; experiment: SPR (Biacore)
Experimental: as §1

Row | Binder | Average IC50, IL-13-induced TARC production by A-549 cells (human IL-13 wild type [1]) [nM] | binding result (mouse IL-13) | Average IC50, IL-13-induced TARC production by A-549 cells [2] [nM] | Average IC50, IL-13-induced TARC production by A-549 cells (human IL-13 wild type [3]) [nM] | Average IC50, IL-13-induced TARC production by A-549 cells (cynomolgus IL-13) [nM] | Kd [4] [nM] | koff [4] [s⁻¹] | kon [4] [M⁻¹ s⁻¹] | Kd (human IL-13 wild type [5]) [nM] | koff (human IL-13 wild type [5]) [s⁻¹] | kon (human IL-13 wild type [5]) [M⁻¹ s⁻¹] | Potency (IC50), A-549 bioassay [6] [nM] | Potency (IC50), A-549 bioassay (human IL-13 wild type [7]) [nM] | Kd (human IL-13 wild type [8]) [nM] | koff (human IL-13 wild type [8]) [s⁻¹] | kon (human IL-13 wild type [8]) [M⁻¹ s⁻¹]
1 | B1 | 0.123 | – | – | – | – | – | – | – | – | – | – | – | – | – | – | –
2 | B2 | – | no binding (tested: 0.1 to 100 ng/ml) | 0.136 | 0.0682 | 0.34 | 0.0744 | 6.18e-05 | 831000 | 0.0772 | 6.58e-05 | 852000 | – | – | – | – | –
3 | B3 | – | no binding (tested: 0.1 to 100 ng/ml) | 0.54 | 0.284 | 6.11 | 0.632 | 0.000155 | 245000 | 0.356 | 6.5e-05 | 182000 | – | – | – | – | –
4 | B4 | 0.041 | – | – | – | – | – | – | – | – | – | – | 0.0692 | 0.0769 | 0.0417 | 3.82e-05 | 915000
5 | B5 | – | – | – | – | – | – | – | – | – | – | – | 0.0741 | 0.029 | 0.0272 | 2.14e-05 | 786000
6 | B6 | – | – | – | – | – | – | – | – | – | – | – | 0.0553 | 0.0295 | 0.105 | 8.81e-05 | 835000
